Test results as given in patent publication US11723913.

Target: murine protein S (mouse) (UniProt Q08761)
Experiment: cell-based or functional assay

UniProt Q08761, sequence (Q08761 42-675 limits assumed): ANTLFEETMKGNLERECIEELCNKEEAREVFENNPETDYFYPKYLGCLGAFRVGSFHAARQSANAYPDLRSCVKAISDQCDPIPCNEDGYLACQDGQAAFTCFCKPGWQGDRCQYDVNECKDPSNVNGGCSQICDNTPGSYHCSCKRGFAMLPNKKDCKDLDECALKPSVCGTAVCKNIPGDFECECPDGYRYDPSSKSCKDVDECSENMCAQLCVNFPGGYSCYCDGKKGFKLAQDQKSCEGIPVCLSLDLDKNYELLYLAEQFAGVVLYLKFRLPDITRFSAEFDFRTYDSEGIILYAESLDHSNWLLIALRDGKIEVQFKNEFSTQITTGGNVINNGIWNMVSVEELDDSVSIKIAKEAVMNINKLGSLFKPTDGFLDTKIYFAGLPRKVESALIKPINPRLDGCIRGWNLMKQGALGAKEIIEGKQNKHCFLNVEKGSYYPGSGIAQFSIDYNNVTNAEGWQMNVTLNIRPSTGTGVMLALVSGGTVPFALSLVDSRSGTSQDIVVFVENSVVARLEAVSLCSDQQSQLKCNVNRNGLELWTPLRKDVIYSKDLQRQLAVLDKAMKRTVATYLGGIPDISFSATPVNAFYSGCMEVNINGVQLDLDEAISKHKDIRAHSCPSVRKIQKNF

reduction of ETP in Ca2+ ionophore-activated PRP of WT mice at 8 nM APC	Substance
30%	mutated recombinant mouse APC (rmAPC L38D) (from UniProt P33587 42-460)
90%	wild type recombinant mouse APC (wt-rmAPC) (from UniProt P33587 42-460)
